# In patent publication US11994512B2, “Single-cell genomic methods to generate ex vivo cell systems that recapitulate in vivo biology with improved fidelity” (Massachusetts Institute of Technology, priority 2018, dated 2024):
# Test system: intracellular proteome of ENR+CD and ENR organoids
# Experiment: LC-MS/MS TMT proteomics of ENR+CD versus ENR organoids
# Assay type: cell-based, C57BL/6 mice
# Conditions: for Average logFC: ENR+CD versus ENR organoids, sample pairs in aggregate (n=4, 2 technical replicates from two biological donors); for M1-1 Log2 Median Normalized / M1-2 Log2 Median Normalized / M2-1 Log2 Median Normalized / M2-2 Log2 Median Normalized: protein abundance ratio ENR+CD versus ENR organoids, LC-MS/MS TMT proteomics; for M1-1 Log2 Median Normalized: sample pair M1-1; for M1-2 Log2 Median Normalized: sample pair M1-2; for M2-1 Log2 Median Normalized: sample pair M2-1; for M2-2 Log2 Median Normalized: sample pair M2-2; for change: up = enriched in ENR+CD, down = enriched in ENR, FDR<0.05 and log fold change cut-off
Molecule,Average logFC,M1-1 Log2 Median Normalized,M1-2 Log2 Median Normalized,M2-1 Log2 Median Normalized,M2-2 Log2 Median Normalized,change
"Q6UQ17 (protein, UniProt Q6UQ17 1-1335, looked up, full-length) MDGVHLGENLEDKDTEFTWEVKANDRTYHKQFKKKGFLCWRQKKYKSNAIHTAKYNIFSFLPLNLYEQFHRMSNLYFLFIIILQGIPEISTLPWFTLFAPLVCLFVIRATRDLVDDIGRHRSDKIINNRPCQILRGKSFLWKKWKNLCVGDVVCLSKDSIVPADLLLLASTEPSSLCYVETADIDGETNLKFRQALTVTHHELTSPKKMASFQGTVTCEEPNSRMHHFVGSLEWNSRKYPLDIGNLLLRGCKIRNTDTCYGLVIYAGLDTKIMKNCGKIHLKRTKLDLMMNKLVALIFLSLVIASLLLTVGFTFMVKQFKAKHYYMSPTHGRSDAMESFFIFWGFLILLSVMVPMAMFIIAEFIYLGNSIFINWDLNMYYEPLDMPAKARSTSLNDQLGQVQYIFSDKTGTLTQNIMTFKKCCINGCIYDSDDEHGTLRKRNPYAWNPFADGKLQFYNKELESLVQGRQDRAVQEFWRLLAICHTVMVQEKDNQLLYQAASPDEEALVTAARNFGYVFLSRTQDTITLVELGEERVYQVLAMMDFNSVRKRMSVLVRNPEGSICLYTKGADTVILERLRSKGVMEATTEEVLAAFAEQTLRTLCLAYKDVEEDAYKEWEPEHQEAALLLQNRAQALHQVYNKMEQNLQLLGATAIEDKLQDGVPETIKCLKKGNIKIWVLTGDKPETAVNIGFACQLLSENMIILEDKDINQVLERYWEDNVHQKAFKMMTHHNMALVINGEFLDQLLLSLRKEPRALVQNAVVDEVAQEPVVSALDFLQKRRISQMWRNAGPSLGTSHSADSKIRESPEVQRERAFVDLASKCQAVICCRVTPKQKALVVALVKKYQQVVTLAIGDGANDVNMIKTADIGVGLAGQEGMQAVQNSDYVLAQFCYLQRLLLVHGRWSYMRVCKFLRYFFYKTVASMMAQIWFSLVNGFSAQPLYEGWFLALFNLLYSTLPVLYIGLFEQDVTAEKSLKMPELYMAGQKGELFNYSIFMQAITHGTITSMINFFVTVMVSSDMSKAGSSHDYQSLGVLVAISSLLSVTLEVMLVVKYWTLLFVGAVVLSLSSYVLMTSLTQSLWMYRISPKTFPFLFADYNVLFEPCSLLLIVLNVALNVLPMLALRTIHRTVLKQRPKGEEEAPSEEVAVEPAMRHLRRGIPARRSSYAFSHREGYANLITQGTILRRQTHVDDSDGGTVCESLNPPEEDIPLQNKDSVFNPRKISILAKKRRHFFGKGSQEEVHPNTSSQTMEKQPTIHRDSETQKLPTTTSATSGKLLPSASEDEAFYSVASQYTLASQPKHTDVHSSFWKSPLWRDSASSSPSQLEVPRKQS",1.464,1.126,1.134,1.7555,1.841,up
"Q6PCN3 (protein, UniProt Q6PCN3 1-1308, looked up, full-length) MQCLAAALKDETNMSGGGEQADILPANYVVKDRWKVLKKIGGGGFGEIYEAMDLLTRENVALKVESAQQPKQVLKMEVAVLKKLQGKDHVCRFIGCGRNEKFNYVVMQLQGRNLADLRRSQPRGTFTLSTTLRLGKQILESIEAIHSVGFLHRDIKPSNFAMGRLPSTYRKCYMLDFGLARQYTNTTGDVRPPRNVAGFRGTVRYASVNAHKNREMGRHDDLWSLFYMLVEFAVGQLPWRKIKDKEQVGMIKEKYEHRMLLKHMPSEFHLFLDHIASLDYFTKPDYQLIMSVFENSMKERGIAENEAFDWEKAGTDALLSTSTSTPPQQNTRQTAAMFGVVNVTPVPGDLLRENTEDVLQGEHLSDQENAPPILPGRPPEGLGPGPHLVPHPGGPEAEVWEETDVNRNKLRINIGKTPCVEEEQSRGVGVPSSPVRAPPDSPTTPVRSLCYRRVNSPESERLSTAADGRVELQERRSRMDLPGSPSRQACSSQPAQMLSVDTGHADRQASGRMDVSASVEQEALSNAFRSVPLAEEEDFDSKEWVIIDKETELKDFPPGAEPSTSGTTDEEPEELRPLPEEGEERRRLGTEPTVRPRGRGMHTLTEEDPRQMLPQPAPPQLSQADGRSETSQPPTPGSPSHSPLHSGPRPRRRESDPTGPQRQVFSVAPPFEVNGLPRAVPLALPYQDFKRDLSDYRERARLLNRVRRVGFSHMLLTAPQVPLAPFQPQANGKEGEEEEEEEEEEEEEEEEEEEEEEEEEEEEEEEEEAGALGEVLGPRSGSSSEGSERSTERSQEGAPSTLLADDQKEARGRASMADGDLEPEEGSKTLVLVSPGDMKKSPVTAELAPDPDLGTLAALTPQHERPQPTGSQLDVSEPGTLSSILKSEPKPSGPGAGGGVGLVAPGAGVTAVTSPFTKVERTFVHIAEKSHLNVMSSGGQASRPEELSTGGELGLEVLSEGGIAEEGAPAPLENGMALAGLDGTEMESCALSGPPGETPSEVVTDSLPNGPALADGPAPASQQEPVTKKGTTISPSRHAMPGSRPRSRIPVLLSEEDTGSEPSGSLSAKERWSKRARPQQDLARLVMEKRQGRLLLRLASGASSSSSEEQRRASETLSGTGSEEDTPASEPTTALPRKAVRAATTRSRIPRPISVSMPVEGQQLPGRPHGAASATDLAITSRLQLQKPSGLAPAADLRPKQSASRGPGPGRAQVSKPAAPRSPGLPASTARHPSGSPRSQSLSRKESSSPSHQARPGVPPSRGVLQVRSQPEASPVAPKKGPKGKQLQTQRAATKGRAVVSEGRPGAR",1.301,0.917,1.005,1.5695,1.711,up
"Q6ZQL4 (protein, UniProt Q6ZQL4 1-677, looked up, full-length) MAAGGGGSYDPLAPAGVPCAFSPDSQAYFALASSDGQLRVWETANNRLHQEYVPSAHLSGTCTCLAWAPARLQAKESHQRKKRKSEVTGTKDQADLLALGTAVGSILLYSTVRGELHSKLTSGGHENRVNCIQWHQDNDCLYSCSDDKYIVEWSTQTCKVKCKWKGDNSSVSSLCISPDGKMLLSAGRTIKLWVLETKEVYRHFTGHATPVSSLRFTTIRPNESQPSDGITGLYFLSGAVHDRLLNVWQVRSENKEKSAVMSFTVTDEPVYVDLTLSENKEEPVKLAVVCRDGQVHLFEHILNGHCKKPLTSNCTIQIATPGKGKKVTPKPIPILAASFCLDKMSLLLVYGNWFQPTIERVALNSKDTHICLERDISNCWAPTVETAITKVKTPVMNSEAKVLVPGIPGHHAPIKLPPAQPKEAENKRKLGSTEATIEERLGAMDLDRKGRKDDLQTNSFAVLLTQGLESNDFEILNKVLQTKNVNLIKRTVLRIPLRVVIPLLQELTKRLQGHPNSAALMIQWLKCVLTIHASYLSTLPDLVEQLGTLYQLMESRVKTFQKLSNLHGKLILLVTQVTASEKSKKMTSPGQKAKLVYEEESSEEESDDEVPEKDSDDNWDEDEDKDSEKDEGVDEDNEEEDEDMEDKEENEEDREVSSEKELNGDSDLDPENESEEE",−1.143,−1.562,−0.715,−0.9435,−1.351,down
"Q6J9G1 (protein, UniProt Q6J9G1 1-429, looked up, full-length) MGEKGHLSRVLLECSLSDKLCVVREKQYEVIIVPALLVGGFLILLAIILWLFIRGQRSQRQSPGPRGTASVPASRGRSQEAAGHGEKVLLPLKETSVEGFLRAATPRLAKLQVPREQLLEVLEQIHSGSCGTLYHATMTTKDHPKPKSVVLKALEDPVGLQEVQDFIGRIQFYQYLGKHKNLVQLEGCCTERLPLYMMLEDVVPGDLLSFLWTCRRDVMTMDGLLYDLTEKQIYHIGKQILLALEFLQEKHLFHGDVAARNILIQSDLTPKLCHLGLAYEVHAHGAISSARSSTIPLKWLAPERLLLRPASIRGDIWSFGILLYEMVTLGAPPYPEVPPTSILQYLQRKKIMKRPSSCSHAMYNIMKCCWRWSEDSRPLLGQLLQRLEAASRSADDKAVLQVPELVVPELYADVAGIRAESISYSFSVL",1.195,1.631,1.194,0.7015,1.233,up
